Measured values reported in publication PMC11764276 (Molecular Therapy, 2024).

Experiments:
[1] = molecular target: T1, RBD (residues 334–527 of the SARS-CoV-2 spike glycoprotein) (SARS-CoV-2, wild type (Wuhan-Hu-1 / …, UniProt P0DTC2)); test: SPR; Biacore 8k; antibody captured on a Series S Protein A chip to ~200 RU or greater; 4X serially diluted RBD starting at 1,000 nM flowed at 50 uL/min, 120 s contact, 600 s dissociation; HBS-EP+ buffer; 1:1 Langmuir fitting, steady state analysis, or two-state reaction fitting; conditions: both partners purified
T1 construct: also called COV2_RBD-his; WT RBD

[2] = molecular target: T1, RBD (residues 334–527 of the SARS-CoV-2 …); test: cell-based or functional assay
[3] = molecular target: T1, RBD (residues 334–527 of the SARS-CoV-2 …); test: ELISA; plates coated with anti-his antibody, 10 ug/mL COV2_RBD-his captured; antibody from 8 ug/mL, 5X dilution series, in duplicate, 1 h at RT; anti-human-Fc-HRP detection; AUC divided by that of 2196 WT; conditions: both partners purified

Row | Binder | Kd [1] [nM] | AUC ratio to 2196 WT [3] | fold change of IC50 against 2196 WT [3] [fold] | further results
1 | 2196 WT (recombinant mAb COV2-2196) (antibody, V domains shown, heavy chain of COV2-2196 (IGHV1-58); light chain of COV2-2196 (IGKV3-20); Whole human IgG (captured on Protein A, detected by anti-human Fc); HC vector with IgG VH leader (UniProt Q9Y298), LC vector with IGKV4-1 leader (UniProt P06312); also called WT 2196; COV-2196) VH: QMQLVQSGPEVKKPGTSVKVSCKASGFTFMSSAVQWVRQARGQRLEWIGWIVIGSGNTNYAQKFQERVTITRDMSTSTAYMELSSLRSEDTAVYYCAAPYCSSISCNDGFDIWGQGTMVTVSS VL: not shown | 1.8 | – | – | IC50 of neutralization of SARS-CoV-2 (USA-WA1/2020 spike) pseudovirus on HuCHOAce2 cells [2]: 0.08 ng/mL
2 | DMAb-2196_AFS_(AA_NT)_var2 (antibody, V domains shown, Whole human IgG; also called AFS variant var2) VH: QMQLVQSGPEVKKPGTSVKVSCKASGFTFMSSAVQWVRQARGQRLEWIGWIVIGSGNTNYAQKFQERVTITRDMSTSTAYMELSSLRSEDTAVYYCAAPYCSSISCNDGFDIWGQGTMVTVSS VL: EVVLTQSPGTLSLSPGERATLSCRASQTISNSYVAWYQQRPGQAPRLLIYGASSRAAGIPDRFSGSGSGTDFTLTISRLEPEDFAVYYCQHYGSSRGWTFGQGTKVEIK | 1.6 | – | – | IC50 of neutralization of SARS-CoV-2 pseudovirus on HuCHOAce2 cells [2]: 0.05 ng/mL
3 | 2196_CDRL1_des2 (antibody, V domains shown, as the heavy chain of m2; as the light chain of m2, with the CDRL1 and CDRL1-adjacent residues of alphamod1 but residues 31 and 32 kept as in 2196 WT; Kabat numbering; Whole human IgG; also called DMAb-Des2; DMAb-2196_Des2) VH: QMQLVQSGPEVKKPGTSVKVSCKASGFTFMSSAVQWVRQARGQRLEWIGWIVIGSGNTNYAQKFQERVTITRDMSTSTAYMELSSLRSEDTAVYYCAAPYCSSISCNDGFDIWGQGTMVTVSS VL: EIVLTQSPGTLSLSPGERATLSCRASQTISNSYVAWYQQKPGQAPRLLIYGASSRATGIPDRFSGSGSGTDFTLTISRLEPEDFAVYYCQHYGSSRGWTFGQGTKVEIK | – | > 0.975 | < 2.14 | –
4 | 2196_CDRL3_Q (antibody, V domains shown, Whole human IgG; also called DMAb-Q) VH: QMQLVQSGPEVKKPGTSVKVSCKASGFTFMSSAVQWVRQARGQRLEWIGWIVIGSGNTNYAQKFQERVTITRDMSTSTAYMELSSLRSEDTAVYYCAAPYCSSISCNDGFDIWGQGTMVTVSS VL: not shown | – | > 0.975 | < 2.14 | –
5 | 2196 HC + 2072 LC (antibody, V domains shown, as the heavy chain of m2; light chain of antibody 2072 (IGKV3-20, clonally related to COV2-2196); Kabat numbering; also called DMAb-2196-HC + DMAb-2072-LC) VH: QMQLVQSGPEVKKPGTSVKVSCKASGFTFMSSAVQWVRQARGQRLEWIGWIVIGSGNTNYAQKFQERVTITRDMSTSTAYMELSSLRSEDTAVYYCAAPYCSSISCNDGFDIWGQGTMVTVSS VL: not shown | 14.3 | – | – | –
6 | DMAb-2196_AFS_(AA_NT)_var3 (antibody, V domains shown, Whole human IgG; also called AFS variant var3) VH: QMQLVQSGPEVKKPGTSVKVSCKASGFTFMSSAVQWVRQARGQRLEWIGWIVIGSGNTNYAQKFQERVTITRDMSTSTAYMELSSLRSEDTAVYYCAAPYCSSISCNDGFDIWGQGTMVTVSS VL: EVVLTQSPGTLSLSPGERATLSCRASQSVSSSYLAWYQQKPGQAPRLLIFGASSRATGIPDRFSGSGSGTDFTLTITRLEPEDSAVYYCQHYGSSRGWTFGQGTKVEIK | 3.2 | – | – | IC50 of neutralization of SARS-CoV-2 pseudovirus on HuCHOAce2 cells [2]: 0.06 ng/mL
7 | DMAb-2196_des2_GP (antibody, V domains shown, Whole human IgG; also called DMAb-Des2_GP) VH: QMQLVQSGPEVKKPGTSVKVSCKASGFTFMSSAVQWVRQARGQRLEWIGWIVIGSGNTNYAQKFQERVTITRDMSTSTAYMELSSLRSEDTAVYYCAAPYCSSISCNDGFDIWGQGTMVTVSS VL: EIVLTQSPGTLSLSPGERATLSCRASQTISNSYVAWYQQKPGQAPRLLIYGASSRATGIPDRFSGSGSGTDFTLTISRLEPEDFAVYYCQHYGSSGPWTFGQGTKVEIK | – | – | – | binding result [1]: binds
8 | 2196_CDRL3_GP (antibody, V domains shown, Whole human IgG; The designs are said to be based on positions 95 and 95A, so the proline probably stands at 95A; also called DMAb-GP) VH: QMQLVQSGPEVKKPGTSVKVSCKASGFTFMSSAVQWVRQARGQRLEWIGWIVIGSGNTNYAQKFQERVTITRDMSTSTAYMELSSLRSEDTAVYYCAAPYCSSISCNDGFDIWGQGTMVTVSS VL: not shown | – | > 0.975 | < 2.14 | –
